Biological target: Trop2 ectodomain (N120Q, N208Q) (human) (UniProt P09758)
Assay: crystal structure; X-ray, 2.81 Å; sitting drop vapor diffusion, 1.6 M ammonium sulfate, 0.5 M NaCl, 13.3 mM EDTA, 0.1 M MES pH 5.8, protein at 10 mg/mL; crystal contacts analysed with PISA

A stoichiometry N of 2 was found for “Trop2 ectodomain (N120Q, N208Q) (from UniProt P09758 27-274) (domain or fragment)” in this work.
